Results on five sequences are retold here after the supplement of paper PMC5998384.

The test system of data set [1] is HeLa Kyoto. The data set can be described thus: solubility in G1/S (NP-40 vs SDS abundance) (log2 ratio); higher = more soluble. The settings on record: cell cycle stage: G1/S.
For data set [2], the system named is HeLa Kyoto. The data set is described as follows: thermal stability score vs G1/S (z-score of summed log2 fold changes over temperatures); higher = more thermally stable than in G1/S.
Data set [3] relates to HeLa Kyoto. The data set can be described thus: solubility change mitosis vs G1/S (difference of NP-40 vs SDS log2 ratios) (log2 ratio difference); higher = more soluble in mitosis.
In data set [4] the test system is HeLa Kyoto. The data set can be described thus: melting temperature (median over replicates), in situ; higher = more thermally stable.
Where [5] appears, read: cell cycle stage: early G1 (4.5 h after nocodazole release).
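Throughout, for melting temperature (median over replicates), in situ: HeLa Kyoto cells synchronized by double thymidine or nocodazole block, proteins quantified by TMT10plex mass spectrometry, three independent biological replicates.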
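Throughout, for solubility change mitosis vs G1/S (difference of NP-40 vs SDS log2 ratios): synchronized HeLa Kyoto cells (double thymidine block for G1/S, nocodazole release for mitosis), protein amounts in NP-40 versus SDS lysates quantified by mass spectrometry, three biological replicates.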
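Throughout, for solubility in G1/S (NP-40 vs SDS abundance): HeLa Kyoto cells arrested at G1/S by double thymidine block, proteins quantified by TMT10plex mass spectrometry in mild NP-40 versus SDS extracts, three biological replicates.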
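Throughout, for thermal stability score vs G1/S (z-score of summed log2 fold changes over temperatures): synchronized HeLa Kyoto cells, proteins quantified by TMT10plex mass spectrometry, three biological replicates, mitosis taken 0.5 h after nocodazole release, G1/S directly after double thymidine block.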

With “MSGFSPELIDYLEGKISFEEFERRREERKTREKKSLQEKGKLSAEENPDDSEVPSSSGINSTKSQDKDVNEGETSDGVRKSVHKVFASMLGENEDDEEEEEEEEEEEEEEETPEQPTAGDVFVLEMVLNRETKKMMKEKRPRSKLPRALRGLMGEANIRFARGEREEAILMCMEIIRQAPLAYEPFSTLAMIYEDQGDMEKSLQFELIAAHLNPSDTEEWVRLAEMSLEQDNIKQAIFCYTKALKYEPTNVRYLWERSSLYEQMGDHKMAMDGYRRILNLLSPSDGERFMQLARDMAKSYYEANDVTSAINIIDEAFSKHQGLVSMEDVNIAAELYISNKQYDKALEIITDFSGIVLEKKTSEEGTSEENKAPENVTCTIPDGVPIDITVKLMVCLVHLNILEPLNPLLTTLVEQNPEDMGDLYLDVAEAFLDVGEYNSALPLLSALVCSERYNLAVVWLRHAECLKALGYMERAAESYGKVVDLAPLHLDARISLSTLQQQLGQPEKALEALEPMYDPDTLAQDANAAQQELKLLLHRSTLLFSQGKMYGYVDTLLTMLAMLLKVAMNRAQVCLISSSKSGERHLYLIKVSRDKISDSNDQESANCDAKAIFAVLTSVLTKDDWWNLLLKAIYSLCDLSRFQEAELLVDSSLEYYSFYDDRQKRKELEYFGLSAAILDKNFRKAYNYIRIMVMENVNKPQLWNIFNQVTMHSQDVRHHRFCLRLMLKNPENHALCVLNGHNAFVSGSFKHALGQYVQAFRTHPDEPLYSFCIGLTFIHMASQKYVLRRHALIVQGFSFLNRYLSLRGPCQESFYNLGRGLHQLGLIHLAIHYYQKALELPPLVVEGIELDQLDLRRDIAYNLSLIYQSSGNTGMAQTLLYTYCSI [GTF3C3]”, the “solubility in G1/S (log2)” value in the data set with HeLa Kyoto [1] was -0.231. Moreover, the figures for the thermal stability score with HeLa Kyoto [2] (setting [5]) and in the data set on HeLa Kyoto [2] (cell cycle stage: mitosis) were 2.95 and 5.2, respectively. Besides, the “solubility change mitosis (log2)” value in the data set on HeLa Kyoto [3] was -0.0144. For the same sequence, the melting temperature in the data set on HeLa Kyoto [4] (cell cycle stage: G1/S) was found to be 45.9 °C; in the data set on HeLa Kyoto [4] (cell cycle stage: mitosis), 49.1 °C.
In the case of “MSGLSGPPARRGPFPLALLLLFLLGPRLVLAISFHLPINSRKCLREEIHKDLLVTGAYEISDQSGGAGGLRSHLKITDSAGHILYSKEDATKGKFAFTTEDYDMFEVCFESKGTGRIPDQLVILDMKHGVEAKNYEEIAKVEKLKPLEVELRRLEDLSESIVNDFAYMKKREEEMRDTNESTNTRVLYFSIFSMFCLIGLATWQVFYLRRFFKAKKLIE [TMED10]”, the “solubility in G1/S (log2)” value in the data set on HeLa Kyoto [1] turned out to be 0.076. Besides, the results for the thermal stability score in the data set on HeLa Kyoto [2] (setting [5]) and in the data set on HeLa Kyoto [2] (cell cycle stage: mitosis) were 0.651 and -0.174, respectively. The “solubility change mitosis (log2)” value in the data set with HeLa Kyoto [3] was -0.0383. For the same sequence, the melting temperature in the data set on HeLa Kyoto [4] (cell cycle stage: G1/S) was determined as 55.3 °C; in the data set with HeLa Kyoto [4] (cell cycle stage: mitosis), 55.8 °C.
In the case of “MSGPRPVVLSGPSGAGKSTLLKRLLQEHSGIFGFSVSHTTRNPRPGEENGKDYYFVTREVMQRDIAAGDFIEHAEFSGNLYGTSKVAVQAVQAMNRICVLDVDLQGVRNIKATDLRPIYISVQPPSLHVLEQRLRQRNTETEESLVKRLAAAQADMESSKEPGLFDVVIINDSLDQAYAELKEALSEEIKKAQRTGA [GUK1]”, in the data set on HeLa Kyoto [1], the “solubility in G1/S (log2)” value amounted to 0.604. The thermal stability score is -0.1 in the data set on HeLa Kyoto [2] (setting [5]) and -0.804 in the data set on HeLa Kyoto [2] (cell cycle stage: mitosis). Also, in the data set on HeLa Kyoto [3], the “solubility change mitosis (log2)” value was 0.047. The melting temperature with HeLa Kyoto [4] (cell cycle stage: G1/S) came out at 48.9 °C; in the data set on HeLa Kyoto [4] (cell cycle stage: mitosis), 50.2 °C.
With “MSGQPPPPPPQQQQQQQQLSPPPPAALAPVSGVVLPAPPAVSAGSSPAGSPGGGAGGEGLGAAAAALLLHPPPPPPPATAAPPPPPPPPPPPASAAAPASGPPAPPGLAAGPGPAGGAPTPALVAGSSAAAPFPHGDSALNEQEKELQRRLKRLYPAVDEQETPLPRSWSPKDKFSYIGLSQNNLRVHYKGHGKTPKDAASVRATHPIPAACGIYYFEVKIVSKGRDGYMGIGLSAQGVNMNRLPGWDKHSYGYHGDDGHSFCSSGTGQPYGPTFTTGDVIGCCVNLINNTCFYTKNGHSLGIAFTDLPPNLYPTVGLQTPGEVVDANFGQHPFVFDIEDYMREWRTKIQAQIDRFPIGDREGEWQTMIQKMVSSYLVHHGYCATAEAFARSTDQTVLEELASIKNRQRIQKLVLAGRMGEAIETTQQLYPSLLERNPNLLFTLKVRQFIEMVNGTDSEVRCLGGRSPKSQDSYPVSPRPFSSPSMSPSHGMNIHNLASGKGSTAHFSGFESCSNGVISNKAHQSYCHSNKHQSSNLNVPELNSINMSRSQQVNNFTSNDVDMETDHYSNGVGETSSNGFLNGSSKHDHEMEDCDTEMEVDSSQLRRQLCGGSQAAIERMIHFGRELQAMSEQLRRDCGKNTANKKMLKDAFSLLAYSDPWNSPVGNQLDPIQREPVCSALNSAILETHNLPKQPPLALAMGQATQCLGLMARSGIGSCAFATVEDYLH [RANBP9]”, the “solubility in G1/S (log2)” value in the data set with HeLa Kyoto [1] turned out to be 0.115. Besides, the thermal stability score in the data set with HeLa Kyoto [2] (setting [5]) is -0.277; in the data set on HeLa Kyoto [2] (cell cycle stage: mitosis), -0.378. In addition, the “solubility change mitosis (log2)” value in the data set on HeLa Kyoto [3] is -0.126. In addition, the melting temperature with HeLa Kyoto [4] (cell cycle stage: G1/S) is 51.6 °C; with HeLa Kyoto [4] (cell cycle stage: mitosis), 51.1 °C.
Consider “MSGQSLTDRITAAQHSVTGSAVSKTVCKATTHEIMGPKKKHLDYLIQCTNEMNVNIPQLADSLFERTTNSSWVVVFKSLITTHHLMVYGNERFIQYLASRNTLFNLSNFLDKSGLQGYDMSTFIRRYSRYLNEKAVSYRQVAFDFTKVKRGADGVMRTMNTEKLLKTVPIIQNQMDALLDFNVNSNELTNGVINAAFMLLFKDAIRLFAAYNEGIINLLEKYFDMKKNQCKEGLDIYKKFLTRMTRISEFLKVAEQVGIDRGDIPDLSQAPSSLLDALEQHLASLEGKKIKDSTAASRATTLSNAVSSLASTGLSLTKVDEREKQAALEEEQARLKALKEQRLKELAKKPHTSLTTAASPVSTSAGGIMTAPAIDIFSTPSSSNSTSKLPNDLLDLQQPTFHPSVHPMSTASQVASTWGDPFSATVDAVDDAIPSLNPFLTKSSGDVHLSISSDVSTFTTRTPTHEMFVGFTPSPVAQPHPSAGLNVDFESVFGNKSTNVIVDSGGFDELGGLLKPTVASQNQNLPVAKLPPSKLVSDDLDSSLANLVGNLGIGNGTTKNDVNWSQPGEKKLTGGSNWQPKVAPTTAWNAATMAPPVMAYPATTPTGMIGYGIPPQMGSVPVMTQPTLIYSQPVMRPPNPFGPVSGAQIQFM [PICALM]”, for which the “solubility in G1/S (log2)” value with HeLa Kyoto [1] was 0.0523. The thermal stability score was -1.28 in the data set with HeLa Kyoto [2] (setting [5]) and -1.63 in the data set on HeLa Kyoto [2] (cell cycle stage: mitosis). Moreover, in the data set on HeLa Kyoto [3], the “solubility change mitosis (log2)” value was -0.0327. For the same sequence, the melting temperature in the data set with HeLa Kyoto [4] (cell cycle stage: G1/S) came out at 53.7 °C; in the data set with HeLa Kyoto [4] (cell cycle stage: mitosis), 53.1 °C.
